# Experimental data taken from US20190040102A1 (CDRD VENTURES, published 2019).
# Starred links: 1 amine or outer side, 2 acyl side, 3 side chain; linkers in the order of their positions; H or OH if unused. Positions of bridges follow the written chain, without caps; N, C: chain ends. Non-standard residues stand in square brackets, D forms with d. *: point of attachment. Tyr(Me) = 4-OMe-Phe, COc1ccc(C[C@H](N[*:1])C(=O)[*:2])cc1; dPhe(4-CONH2) = NC(=O)c1ccc(C[C@@H](N)C(=O)O)cc1; Phe(4-Cl) = N[C@@H](Cc1ccc(Cl)cc1)C(=O)O; dPhe(4-Cl) = N[C@H](Cc1ccc(Cl)cc1)C(=O)O; dCit = NC(=O)NCCC[C@@H](N)C(=O)O; Tle = CC(C)(C)[C@H](N)C(=O)O; Nicotinoyl = O=C(c1cccnc1)*
# Target: somatostatin receptor type 2 (SSTR2) (UniProt P30874 1-369)
# Sequence (P30874 whole entry): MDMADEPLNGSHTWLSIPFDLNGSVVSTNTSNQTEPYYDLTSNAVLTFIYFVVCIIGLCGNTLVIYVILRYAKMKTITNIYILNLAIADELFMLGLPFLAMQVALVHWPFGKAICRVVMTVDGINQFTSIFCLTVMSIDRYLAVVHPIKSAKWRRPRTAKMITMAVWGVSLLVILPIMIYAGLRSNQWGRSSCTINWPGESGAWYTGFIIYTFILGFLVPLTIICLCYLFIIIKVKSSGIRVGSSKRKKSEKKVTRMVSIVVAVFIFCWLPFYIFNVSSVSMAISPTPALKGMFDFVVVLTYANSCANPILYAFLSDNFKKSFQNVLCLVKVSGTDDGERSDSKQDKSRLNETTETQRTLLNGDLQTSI
# Test: cell-based or functional assay
row,"IC50 (PathHunter β-Arrestin, antagonist mode)",Binder
1,70.4 nM,H-[Phe(4-Cl)][dC]Y[dCit]K(Me)TC[dY]-NH2 (disulfide 2-7; SMILES CNCCCC[C@@H]1NC(=O)[C@@H](CCCNC(N)=O)NC(=O)[C@H](Cc2ccc(O)cc2)NC(=O)[C@H](NC(=O)[C@@H](N)Cc2ccc(Cl)cc2)CSSC[C@@H](C(=O)N[C@H](Cc2ccc(O)cc2)C(N)=O)NC(=O)[C@H]([C@@H](C)O)NC1=O) [Compound 31: H-Cpa-cyclo[DCys-Tyr-D-Cit-(N-Me)Lys-Thr-Cys]-DTyr-NH2]
2,398 nM,"XXYXRTCX (HELM PEPTIDE1{[N[C@@H](Cc1ccc(Cl)cc1)C(=O)[*:2]].[dC].Y.[NC(=O)c1ccc(C[C@@H](N[*:1])C(=O)[*:2])cc1].R.T.C.[dY].[am]}$PEPTIDE1,PEPTIDE1,2:R3-7:R3$$$V2.0; SMILES C[C@@H](O)[C@@H]1NC(=O)[C@H](CCCNC(=N)N)NC(=O)[C@@H](Cc2ccc(C(N)=O)cc2)NC(=O)[C@H](Cc2ccc(O)cc2)NC(=O)[C@H](NC(=O)[C@@H](N)Cc2ccc(Cl)cc2)CSSC[C@@H](C(=O)N[C@H](Cc2ccc(O)cc2)C(N)=O)NC1=O) [Compound 29: H-Cpa-cyclo[DCys-Tyr-D-(4-carbamoyl)Phe-Arg-Thr-Cys]-DTyr-NH2]"
3,10.6 nM,"XXYXKSCX (HELM PEPTIDE1{[N[C@@H](Cc1ccc(Cl)cc1)C(=O)[*:2]].[dC].Y.[NC(=O)c1ccc(C[C@@H](N[*:1])C(=O)[*:2])cc1].K.S.C.[dY].[am]}$PEPTIDE1,PEPTIDE1,2:R3-7:R3$$$V2.0; SMILES NCCCC[C@@H]1NC(=O)[C@@H](Cc2ccc(C(N)=O)cc2)NC(=O)[C@H](Cc2ccc(O)cc2)NC(=O)[C@H](NC(=O)[C@@H](N)Cc2ccc(Cl)cc2)CSSC[C@@H](C(=O)N[C@H](Cc2ccc(O)cc2)C(N)=O)NC(=O)[C@H](CO)NC1=O) [Compound 37: H-Cpa-cyclo[DCys-Tyr-D-(4-carbamoyl)Phe-Lys-Ser-Cys]-DTyr-NH2]"
4,104 nM,"XXYXKTCX (HELM PEPTIDE1{[N[C@@H](Cc1ccc(Cl)cc1)C(=O)[*:2]].[dC].Y.[COc1ccc(NC(=O)Nc2ccc(C[C@@H](N[*:1])C(=O)[*:2])cc2)cc1].K.T.C.[dY].[am]}$PEPTIDE1,PEPTIDE1,2:R3-7:R3$$$V2.0; SMILES COc1ccc(NC(=O)Nc2ccc(C[C@H]3NC(=O)[C@H](Cc4ccc(O)cc4)NC(=O)[C@H](NC(=O)[C@@H](N)Cc4ccc(Cl)cc4)CSSC[C@@H](C(=O)N[C@H](Cc4ccc(O)cc4)C(N)=O)NC(=O)[C@H]([C@@H](C)O)NC(=O)[C@H](CCCCN)NC3=O)cc2)cc1) [Compound 28: H-Cpa-cyclo[DCys-Tyr-D-(4-(4-methoxyphenyl)ureido)Phe-Lys-Thr-Cys]-DTyr-NH2]"
5,> 1000 nM,"XCYXKTCX (HELM PEPTIDE1{[N[C@@H](Cc1ccc(Cl)cc1)C(=O)[*:2]].C.Y.[NC(=O)c1ccc(C[C@@H](N[*:1])C(=O)[*:2])cc1].K.T.C.[dY].[am]}$PEPTIDE1,PEPTIDE1,2:R3-7:R3$$$V2.0; SMILES C[C@@H](O)[C@@H]1NC(=O)[C@H](CCCCN)NC(=O)[C@@H](Cc2ccc(C(N)=O)cc2)NC(=O)[C@H](Cc2ccc(O)cc2)NC(=O)[C@@H](NC(=O)[C@@H](N)Cc2ccc(Cl)cc2)CSSC[C@@H](C(=O)N[C@H](Cc2ccc(O)cc2)C(N)=O)NC1=O) [Compound 39: H-Cpa-cyclo[Cys-Tyr-D-(4-carbamoyl)Phe-Lys-Thr-Cys]-DTyr-NH2]"
6,35.9 nM,"XXFXKTCX (HELM PEPTIDE1{[N[C@@H](Cc1ccc(Cl)cc1)C(=O)[*:2]].[dC].F.[NC(=O)c1ccc(C[C@@H](N[*:1])C(=O)[*:2])cc1].K.T.C.[dY].[am]}$PEPTIDE1,PEPTIDE1,2:R3-7:R3$$$V2.0; SMILES C[C@@H](O)[C@@H]1NC(=O)[C@H](CCCCN)NC(=O)[C@@H](Cc2ccc(C(N)=O)cc2)NC(=O)[C@H](Cc2ccccc2)NC(=O)[C@H](NC(=O)[C@@H](N)Cc2ccc(Cl)cc2)CSSC[C@@H](C(=O)N[C@H](Cc2ccc(O)cc2)C(N)=O)NC1=O) [Compound 35: H-Cpa-cyclo[DCys-Phe-D-(4-carbamoyl)Phe-Lys-Thr-Cys]-DTyr-NH2]"
7,2.46 nM,H-[Phe(4-Cl)][dC]Y[dPhe(4-CONH2)]K(diMe)TC[dY]-NH2 (disulfide 2-7) [Compound 32: H-Cpa-cyclo[D-Cys-Tyr-D-Phe(4-carbamoyl)-Lys(N-diMe)-Thr-Cys]-D-Tyr-NH2]
8,25.6 nM,H-[Phe(4-Cl)][dC][Phe(4-Cl)][dPhe(4-CONH2)]KTC[dPhe(4-Cl)]-NH2 (disulfide 2-7; SMILES C[C@@H](O)[C@@H]1NC(=O)[C@H](CCCCN)NC(=O)[C@@H](Cc2ccc(C(N)=O)cc2)NC(=O)[C@H](Cc2ccc(Cl)cc2)NC(=O)[C@H](NC(=O)[C@@H](N)Cc2ccc(Cl)cc2)CSSC[C@@H](C(=O)N[C@H](Cc2ccc(Cl)cc2)C(N)=O)NC1=O) [Compound 43: H-Cpa-cyclo[DCys-4-Cl-Phe-D-(4-carbamoyl)Phe-Lys-Thr-Cys]-4-Cl-D-Phe-NH2]
9,9.84 nM,H-[Phe(4-Cl)][dC]Y[dPhe(4-CONH2)]KTC[dPhe(4-Cl)]-NH2 (disulfide 2-7; SMILES C[C@@H](O)[C@@H]1NC(=O)[C@H](CCCCN)NC(=O)[C@@H](Cc2ccc(C(N)=O)cc2)NC(=O)[C@H](Cc2ccc(O)cc2)NC(=O)[C@H](NC(=O)[C@@H](N)Cc2ccc(Cl)cc2)CSSC[C@@H](C(=O)N[C@H](Cc2ccc(Cl)cc2)C(N)=O)NC1=O) [Compound 42: H-Cpa-cyclo[DCys-Tyr-D-(4-carbamoyl)Phe-Lys-Thr-Cys]-4-Cl-D-Phe-NH2]
10,24.4 nM,"XXFXKTCX (HELM PEPTIDE1{[N[C@@H](Cc1ccc(Cl)cc1)C(=O)[*:2]].[dC].F.[NC(=O)c1ccc(C[C@@H](N[*:1])C(=O)[*:2])cc1].K.T.C.[dF].[am]}$PEPTIDE1,PEPTIDE1,2:R3-7:R3$$$V2.0; SMILES C[C@@H](O)[C@@H]1NC(=O)[C@H](CCCCN)NC(=O)[C@@H](Cc2ccc(C(N)=O)cc2)NC(=O)[C@H](Cc2ccccc2)NC(=O)[C@H](NC(=O)[C@@H](N)Cc2ccc(Cl)cc2)CSSC[C@@H](C(=O)N[C@H](Cc2ccccc2)C(N)=O)NC1=O) [Compound 41: H-Cpa-cyclo[DCys-Phe-D-(4-carbamoyl)Phe-Lys-Thr-Cys]-DPhe-NH2]"
11,24.4 nM,H-[Phe(4-Cl)][dC][Tyr(Me)][dPhe(4-CONH2)]KTC[dY]-NH2 (disulfide 2-7; SMILES COc1ccc(C[C@@H]2NC(=O)[C@H](NC(=O)[C@@H](N)Cc3ccc(Cl)cc3)CSSC[C@@H](C(=O)N[C@H](Cc3ccc(O)cc3)C(N)=O)NC(=O)[C@H]([C@@H](C)O)NC(=O)[C@H](CCCCN)NC(=O)[C@@H](Cc3ccc(C(N)=O)cc3)NC2=O)cc1) [Compound 38: H-Cpa-cyclo[DCys-4-OMe-Phe-D-(4-carbamoyl)Phe-Lys-Thr-Cys]-DTyr-NH2]
12,34.7 nM,H-[Phe(4-Cl)][dC]Y[dPhe(4-benzamidophenyl)]KTC[dY]-NH2 (disulfide 2-7) [Compound 27: H-Cpa-cyclo[DCys-Tyr-D-(4-Benzamidophenyl)Phe-Lys-Thr-Cys]-DTyr-NH2]
13,177 nM,H-[Phe(4-Cl)][dC]Y[dK](Nicotinoyl)K(Me)TC[dY]-NH2 (disulfide 2-7; SMILES CNCCCC[C@@H]1NC(=O)[C@@H](CCCCNC(=O)c2cccnc2)NC(=O)[C@H](Cc2ccc(O)cc2)NC(=O)[C@H](NC(=O)[C@@H](N)Cc2ccc(Cl)cc2)CSSC[C@@H](C(=O)N[C@H](Cc2ccc(O)cc2)C(N)=O)NC(=O)[C@H]([C@@H](C)O)NC1=O) [Compound 30: H-Cpa-cyclo[D-Cys-Tyr-D-Lys(Nε-nicotinoyl)-Lys(Nε-Me)-Thr-Cys]-D-Tyr-NH2]
14,16.2 nM,"XXYXKTCX (HELM PEPTIDE1{[N[C@@H](Cc1ccc(Cl)cc1)C(=O)[*:2]].[dC].Y.[NC(=O)c1ccc(C[C@@H](N[*:1])C(=O)[*:2])cc1].K.T.C.[dF].[am]}$PEPTIDE1,PEPTIDE1,2:R3-7:R3$$$V2.0; SMILES C[C@@H](O)[C@@H]1NC(=O)[C@H](CCCCN)NC(=O)[C@@H](Cc2ccc(C(N)=O)cc2)NC(=O)[C@H](Cc2ccc(O)cc2)NC(=O)[C@H](NC(=O)[C@@H](N)Cc2ccc(Cl)cc2)CSSC[C@@H](C(=O)N[C@H](Cc2ccccc2)C(N)=O)NC1=O) [Compound 40: H-Cpa-cyclo[DCys-Tyr-D-(4-carbamoyl)Phe-Lys-Thr-Cys]-DPhe-NH2]"
15,56 nM,"XXYXKVCX (HELM PEPTIDE1{[N[C@@H](Cc1ccc(Cl)cc1)C(=O)[*:2]].[dC].Y.[NC(=O)c1ccc(C[C@@H](N[*:1])C(=O)[*:2])cc1].K.V.C.[dY].[am]}$PEPTIDE1,PEPTIDE1,2:R3-7:R3$$$V2.0; SMILES CC(C)[C@@H]1NC(=O)[C@H](CCCCN)NC(=O)[C@@H](Cc2ccc(C(N)=O)cc2)NC(=O)[C@H](Cc2ccc(O)cc2)NC(=O)[C@H](NC(=O)[C@@H](N)Cc2ccc(Cl)cc2)CSSC[C@@H](C(=O)N[C@H](Cc2ccc(O)cc2)C(N)=O)NC1=O) [Compound 33: H-Cpa-cyclo[DCys-Tyr-D-4-(carbamoyl)Phe-Lys-Val-Cys]-DTyr-NH2]"
16,43.4 nM,H-[Phe(4-Cl)][dC]Y[dPhe(4-CONH2)]K[Tle]C[dY]-NH2 (disulfide 2-7; SMILES CC(C)(C)[C@@H]1NC(=O)[C@H](CCCCN)NC(=O)[C@@H](Cc2ccc(C(N)=O)cc2)NC(=O)[C@H](Cc2ccc(O)cc2)NC(=O)[C@H](NC(=O)[C@@H](N)Cc2ccc(Cl)cc2)CSSC[C@@H](C(=O)N[C@H](Cc2ccc(O)cc2)C(N)=O)NC1=O) [Compound 34: H-Cpa-cyclo[DCys-Tyr-D-4-(carbamoyl)Phe-Lys-tBu-Gly-Cys]-DTyr-NH2]
17,> 1000 nM,"XXYXXTCX (HELM PEPTIDE1{[N[C@@H](Cc1ccc(Cl)cc1)C(=O)[*:2]].[dC].Y.[NC(=O)c1ccc(C[C@@H](N[*:1])C(=O)[*:2])cc1].K.T.C.[dY].[am]}|PEPTIDE2{[ac]}$PEPTIDE1,PEPTIDE2,5:R3-1:R2|PEPTIDE1,PEPTIDE1,2:R3-7:R3$$$V2.0; SMILES CC(=O)NCCCC[C@@H]1NC(=O)[C@@H](Cc2ccc(C(N)=O)cc2)NC(=O)[C@H](Cc2ccc(O)cc2)NC(=O)[C@H](NC(=O)[C@@H](N)Cc2ccc(Cl)cc2)CSSC[C@@H](C(=O)N[C@H](Cc2ccc(O)cc2)C(N)=O)NC(=O)[C@H]([C@@H](C)O)NC1=O) [Compound 26: H-Cpa-cyclo[DCys-Tyr-D-(4-carbamoyl)Phe-(N-Acetyl)Lys-Thr-Cys]-DTyr-NH2]"
18,28.7 nM,H-[Phe(4-Cl)][dC][Phe(4-Cl)][dPhe(4-CONH2)]KTC[dY]-NH2 (disulfide 2-7; SMILES C[C@@H](O)[C@@H]1NC(=O)[C@H](CCCCN)NC(=O)[C@@H](Cc2ccc(C(N)=O)cc2)NC(=O)[C@H](Cc2ccc(Cl)cc2)NC(=O)[C@H](NC(=O)[C@@H](N)Cc2ccc(Cl)cc2)CSSC[C@@H](C(=O)N[C@H](Cc2ccc(O)cc2)C(N)=O)NC1=O) [Compound 36: H-Cpa-cyclo[DCys-Cpa-D-(4-carbamoyl)Phe-Lys-Thr-Cys]-DTyr-NH2]
